B1: 15H6: 7A1 biosensor with F433Y, M493V in Luc2.0 and modified linker …; SEQ ID NO:107, 108 (protein)
chain: MPGAVGKVVPFFEAKVVDLDTGKTLGVNQRGELCVRGPMIMSGYVNNPEATNALIDKDGWLHSGDIAYWDEDEHFYIVDRLKSLIKYKGYQVAPAELESILLQHPNIFDAGVAGLPDDDAGELPAAVVVLEHGKTVTEKEIVDYVASQVTTAKKLRGGVVFVDEVPKGLTGKLDARKIREILIKAKKGSNWDSGCSRECMYESFIESLPFLKSLEFSARLKVVDVIGTKVYNDGEQIIAQGDSADSFFIIESGEVKITMKRKGKSEVEENGAVEIARCSRGQYFGELALVTNKPRAASAHAIGTVKCLAMDVQAFERLLGPCMEIMKRNIATYEEQLVALFGTNMDIVAKNIKKGPAPFYPLEDGTAGEQLHKAMKRYALVPGTIAFTDAHIEVDITYAEYFEMSVRLAEAMKRYGLNTNHRIVVCSENSLQFFMPVLGALFIGVAVAPANDIYNERELLNSMGISQPTVVFVSKKGLQKILNVQKKLPIIQKIIIMDSKTDYQGFQSMYTFVTSHLPPGFNEYDFVPESFDRDKTIALIMNSSGSTGLPKGVALPHRTACVRFSHARDPIFGNQIIPDTAILSVVPFHHGFGMFTTLGYLICGFRVVLMYRFEEELFLRSLQDYKIQSALLVPTLFSFFAKSTLIDKYDLSNLHEIASGGAPLSKEVGEAVAKRFHLPGIRQGYGLTETTSAILITPEGV
notes: 7A1 biosensor with F433Y, M493V in Luc2.0 and modified linker …
B2: 16B3: 7A1 biosensor with S440N in Luc2.0; SEQ ID NO:72, 73 (protein)
chain: MPGAVGKVVPFFEAKVVDLDTGKTLGVNQRGELCVRGPMIMSGYVNNPEATNALIDKDGWLHSGDIAYWDEDEHFFIVDRLKNLIKYKGYQVAPAELESILLQHPNIFDAGVAGLPDDDAGELPAAVVVLEHGKTMTEKEIVDYVASQVTTAKKLRGGVVFVDEVPKGLTGKLDARKIREILIKAKKGSNWDSGCSREGMYESFIESLPFLKSLEFSARLKVVDVIGTKVYNDGEQIIAQGDSADSFFIIESGEVKITMKRKGKSEVEENGAVEIARCSRGQYFGELALVTNKPRAASAHAIGTVKCLAMDVQAFERLLGPCMEIMKRNIATYEEQLVALFGTNMDIVAKNIKKGPAPFYPLEDGTAGEQLHKAMKRYALVPGTIAFTDAHIEVDITYAEYFEMSVRLAEAMKRYGLNTNHRIVVCSENSLQFFMPVLGALFIGVAVAPANDIYNERELLNSMGISQPTVVFVSKKGLQKILNVQKKLPIIQKIIIMDSKTDYQGFQSMYTFVTSHLPPGFNEYDFVPESFDRDKTIALIMNSSGSTGLPKGVALPHRTACVRFSHARDPIFGNQIIPDTAILSVVPFHHGFGMFTTLGYLICGFRVVLMYRFEEELFLRSLQDYKIQSALLVPTLFSFFAKSTLIDKYDLSNLHEIASGGAPLSKEVGEAVAKRFHLPGIRQGYGLTETTSAILITPEGV

Columns and labels:
dopamine D2 receptor = target: T1, dopamine D2 receptor (Homo sapiens, UniProt P14416); experiment: Forskolin, dopamine and haloperidol responses of biosensor clones in HEK293 cells stably expressing the dopamine D2 receptor; type: cell-based; conditions: for Dopamine Induced: 3 μM FSK + 0.3 μM dopamine; for Dopamine Induced / Forskolin (FSK) Induced / Forskolin (FSK) Uninduced: 10 minutes; for Forskolin (FSK) Induced: 3 μM FSK; for Halo Induced: 10 μM Haloperidol pre-treatment, then 3 μM FSK + 0.3 μM dopamine; for Dopamine Response: RLU agonist-treated / forskolin-treated; for Forskolin (FSK) Response: RLU forskolin-treated / untreated; for Halo Response: RLU haloperidol then FSK + dopamine / FSK + dopamine alone; for Forskolin (FSK) Uninduced: untreated (media alone)
T1 construct: expressed in transfected cells
From the text: To measure changes in the intracellular concentration of cAMP, HEK293 cells are transiently transfected with mutant cAMP biosensors followed by treatment with compounds known to increase or decrease the intracellular cAMP concentration through GPCR activation of Gs- or Gi-coupled receptors, respectively.
HEK293 cells stably expressing the dopamine D2 receptor were transiently transfected with the mutant cAMP biosensors from Example VIIB. Cells were also transfected with either 7A1 (Example III) or GS358 (parent biosensor) as controls. Cells were equilibrated for 2 hours at room temperature using 2 mM EF-luc. Antagonist assay wells were pre-treated for 10-15 minutes at room temperature with 10 μM Haloperidol (Halo). Next, the following reagents were added to their respective wells: media alone to “untreated” samples; 3 μM forskolin (FSK) to “forskolin-treated” samples; 3 μM FSK+0.3 μM dopamine to “agonist-treated” samples; and 3 μM FSK+0.3 μM dopamine to the aforementioned wells pre-treated with Halo. The cells were then incubated at room temperature for 10 minutes and luminescence was measured. Fold response for FSK was calculated by dividing the RLU from “forskolin-treated” cells by the RLU from the “untreated” cells. Fold response for dopamine treatment was calculated by dividing the RLU from the “agonist-treated” cells by the RLU from the “forskolin-treated” cells. Fold response for Haloperidol treatment was calculated by dividing the RLU from the cells treated with haloperidol then forskolin plus dopamine by the RLU of cells treated with forskolin plus dopamine alone.

HEK293 cells = experiment: Luminescence and fold response of biosensor clones in HEK293 cells after isoproterenol or FSK; type: cell-based; conditions: for Isoproterenol-5 minutes Induced / Isoproterenol-5 minutes Resp: 5 minutes after isoproterenol; for Forskolin (FSK) Induced / Forskolin (FSK) Resp: 15 minutes after FSK; for Isoproterenol-15 minutes Induced / Isoproterenol-15 minutes Resp: 15 minutes after isoproterenol; for Isoproterenol-5 minutes Resp / Forskolin (FSK) Resp / Isoproterenol-15 minutes Resp: RLU induced / RLU uninduced; for Isoproterenol-5 minutes Uninduced / Forskolin (FSK) Uninduced / Isoproterenol-15 minutes Uninduced: uninduced cells; for Forskolin (FSK) Uninduced / Isoproterenol-15 minutes Uninduced: 15 minutes
Procedure: B. HEK293 cells were transiently transfected with plasmid DNAs encoding various biosensor mutants as above. These biosensor mutants contained the E284A and V316I mutation in the RIIbetaB cAMP binding domain and the modified linker sequence 7A1 (GSNWDSGCSREG; SEQ ID NO: 129). The clones also contained the additional mutations outlined in Table 5. Cells were equilibrated for 2 hours at room temperature with 2 mM EF-Luc. Luminescence was measured 5 and 15 minutes after addition of the isoproterenol and 15 minutes after addition of FSK. Fold response (response; Resp.) was calculated by dividing relative light units (RLUs) from induced cells by the RLUs from uninduced cells. As a control, the biosensor GS358 and 7A1 were included.

T1 sequence (P14416 whole entry, species assumed): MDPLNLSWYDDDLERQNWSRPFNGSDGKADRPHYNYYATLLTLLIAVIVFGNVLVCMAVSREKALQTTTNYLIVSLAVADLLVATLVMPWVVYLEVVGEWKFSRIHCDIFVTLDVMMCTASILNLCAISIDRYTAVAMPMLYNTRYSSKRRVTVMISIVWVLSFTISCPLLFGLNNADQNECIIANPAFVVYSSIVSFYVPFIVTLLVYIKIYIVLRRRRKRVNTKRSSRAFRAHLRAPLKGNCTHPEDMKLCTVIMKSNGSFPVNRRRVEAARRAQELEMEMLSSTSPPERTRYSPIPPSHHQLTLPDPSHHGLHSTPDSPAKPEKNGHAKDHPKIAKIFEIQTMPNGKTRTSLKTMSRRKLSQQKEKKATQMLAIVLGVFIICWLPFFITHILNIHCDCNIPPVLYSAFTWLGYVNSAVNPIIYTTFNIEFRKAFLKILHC

Row | Molecule | Dopamine Induced (dopamine D2 receptor) [RLU] | Forskolin (FSK) Induced (dopamine D2 receptor) [RLU] | Halo Induced (dopamine D2 receptor) [RLU] | Dopamine Response (dopamine D2 receptor) [fold] | Forskolin (FSK) Response (dopamine D2 receptor) [fold] | Halo Response (dopamine D2 receptor) [fold] | Forskolin (FSK) Uninduced (dopamine D2 receptor) [RLU] | Isoproterenol-5 minutes Induced (HEK293 cells) [RLU] | Forskolin (FSK) Induced (HEK293 cells) [RLU] | Isoproterenol-15 minutes Induced (HEK293 cells) [RLU] | Isoproterenol-5 minutes Resp (HEK293 cells) [fold] | Forskolin (FSK) Resp (HEK293 cells) [fold] | Isoproterenol-15 minutes Resp (HEK293 cells) [fold] | Isoproterenol-5 minutes Uninduced (HEK293 cells) [RLU] | Forskolin (FSK) Uninduced (HEK293 cells) [RLU] | Isoproterenol-15 minutes Uninduced (HEK293 cells) [RLU]
1 | B1 | 30 | 7177 | 65 | 0.56 | 25 | 2.2 | 283 | 91567 | 29500 | 244700 | 85 | 57 | 61 | 1073 | 4040 | 4040
2 | B2 | 3050 | 6400 | 6188 | 0.48 | 17 | 2.0 | 370 | 72003 | 257605 | 248415 | 35 | 39 | 38 | 2063 | 6555 | 6555
